Reference: the nanobody polyreactivity screen of Harvey et al. (2022)

Assay: yeast display, Sf9 membrane polyspecificity reagent, FACS + sequencing; frameworks hold sequencing errors
Method in brief: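 Using colony PCR, genes from sorted yeast display clones were amplified, then sequenced on MiSeq at 2 × 250 and filtered by CDR length. The clones had been stained with 10% biotinylated, detergent-solubilized Sf9 membrane reagent for 1 hour at 4 °C and sorted by FACS into low and high (top ~1%) gates on anti-HA and streptavidin fluorescence. Polyreactivity labels come from the gate of origin.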

Sequence | polyreactivity (PSR sort gate)
QDQLVESGGGLVQAGGSLRLSCAASGLTFYTYAMGWYRPAPGKERELVAAIRWRGGRTYYADSVKGRFTISRDNAKNTVYLLMNSLKPEDTAVYYCAADYSTLYKYDYWGQGTQVTVSS | low polyreactivity
QVQLVESGGGLVQAGGSLRLSCAASGFTFQYYAMGWYRQAPGKERELVAAISWSGDSTYYADSVKGRFTISRDNAKNTVYLQMNSLKPEDTAVYYCAVYYTRGYDYWGQGTQVTVSS | high polyreactivity
QVQLVESGGGLVQAGGSLRLSCAASGSISYRYAMGWYRQAPGKERELVAAISYRGGTTYYADSVKGRFTISRDNAKNTVYLQMNSLKPEDTAVYYCADDFFGSSYPFYYWGQGTQVTVSS | high polyreactivity
QVQLVESGGGLVQAGGSLRLSCAASGSIIHDNAMGWYRQAPGKERELVAAINRGGSTHYADSVKGRFTISRDNAKNTVYLQMNSLKPEDTAVYYCAADGIRPEVGYWGQGTQVTVSS | low polyreactivity
QVQLVESGGGLVQAGGSLRLSCAASGSTFRNAMGWYRQAPGKERELVAAISYSGGRTYYADSVKGRFTISRDNAKNTVYLQMNSLKPEDTAVYYCASPGVSWSTRSYYYWGQGTQVTVSS | high polyreactivity
QVQLVESWGVLVQAGGSLRLSCAASGSIFYYYVMGWYRQAPWKERELVAAISYGGGTNYADSVKERFTISRDNAKNTVYLQMISLKPEDTAVYYCNVVTYRRFDYWGQGTQVTVSS | low polyreactivity
QVQLVESGGGLVQAGGSLRLSCAASGSILPLYAMGWYRQAPGKERELVATISNAGSTTYADSVKGRFTISRDNAKNTVYLQMNSLKPEDTAVYYCNAESEWGWVYVGYDYWGQGTQVTVSS | low polyreactivity
QVQLVDSGGGLVQAGGSLRLSCAASGFTFTQYAMAWYIQAPGKERELVASIRSGGSTKYADSVKGRFTISRDNAKNTVYLQMISLKPEDTAVYYCAKDRYHISFFYQMEFWGQGTQVTVSS | low polyreactivity
QVQLVESGGGLVQAGGSLRLSCAASGSTFPTYAMGWYRQAPGKERELVAAITRGGRTYYADSVKGRFTISRDNAKNTVYLQMNSLKPEDTAVYYCAAVYYGAAQYNYWGQGTQVTVSS | high polyreactivity
QVQLVESGGGLVQAGGSLRLSCAASGSTYEIYAMGWYRQAPGKDRELVAAISSGGSTNYADSVKGRFTISRDNAKNTVYLQMNSLKPEDTAVYYCVYAIQFDYWGQGTQVTVSS | low polyreactivity
QVQLVESGGGLVQAGGSLRLSCAASGRIFENNAMGWYRPAPGKERELVAAITSGGSTYYADSVKGRFTISRDNAKNTVYLQMNSLKPEDTAVYYCNVTFRVDPWTRTGYDYWGQGTQVTVSS | high polyreactivity
QVQLVESGGGLVQAGGSLRLSCAASGLIFKVYAMGWYRQAPWKERELVAAITYSGGSTDYADSVKGRFTISRDNAKNTVYLQMNSLTPEDTAVYYCNVEKVGHVNSYGYDYWGQGTQVNVSS | low polyreactivity
QVQLVESVGGLVQAGGSLRLICAASGSTIFYNAMGWYRQAPGKERELVAAISWSGGRTYYADSVKGRFTISRDNAKNTVYLQMYRLKPEDNAVYYCNTVVSKYYKVGFGSWGQGTQVTVSS | high polyreactivity
QVQLVESGGSLVQSGGSLRLSCAASGSIFYRNAMGWYRQEPGKERELVASITSGGRTNYADSVKGRFTISRDNAKNTVYLQMNSLKPEDTAVYYCARGRASYTKSGPTPYTGYGYWGQGTQVTVSS | low polyreactivity
QVHLVESGGGLVQAGGSLRLSCSASGFTFGSNAMGWYRQAPGKERELVAAINYSGLRTYYADSVKGRFTISRDNAKNTVYLQMNSLKPEDTAVYDCAARTSIVTRLRYGYWGQGTQVTVSS | high polyreactivity
QVHLVESGGGLVQAGGSLRLSCAASGRIFGRNAMGWYRQAPGKERELVAAISKRGGSTSYADSVKGRFTISRDNAKNTVYLQMNSLKPEDTAVYYCATSAPLVTSSGYGYWGHGTQVTVSS | high polyreactivity
HVQLVESGGGLVQEGGSLRLSCAASGSILALYAMGWDRQAPGKERELVAAISSGDSTSYADSVKGRFTISRDNAKNTVYLQMNSLKPEDTAVYYCAADRPIYPYPGKGFRYDYWGQGTQVTVSS | low polyreactivity
QVQLVESGGGLVQAGGSLRLSCADSGSIFLWNTMGWYRQAPGKERELVAAINFSGTRTYYADSVKGRFTISRDNAKNTVYLQMNSLKPEDTAVYYCNARTSRRLDYDYWGQGTQVTVSS | high polyreactivity
QVQLVESGGGLVQAGGSLRLSCAASGFIFRYNAMGWYRQAPGKERELVASISYSGARTYYADSVKGRFTISRDNEKNTVYLQMNSLKPEDTAVYYCATGPLSYVRYYYWGQGTQVTVSS | low polyreactivity
QVQLVESGGGLVQAGGSLRLSCAASGSTYAAKTMGWYRQAPGKERELVAAITVRGGSTYYADSVKGRFTISRDNAKNTVYLQMNSLKPEDTAVYYCATRHPARRDYWGQGTQVTVSS | low polyreactivity
QVQLVESGGGLVQAGGRLRLSCAASGRTFYGYAMGWYSPAPGKERELVAAITNGGRTYYADSVKGRFTISRDNAKNTVYLQMNSLKPEATAVYYCAAGPGRGRSTLGSYYWGQGTQVTVSS | high polyreactivity
QVQLQESGGGLVQAGGSLRLSCAASGSIFHLHIMCWYSQAPGKERESVAAISYGTSTYFADSVKGRFTICRDNAKNTVYLQMNSPKPYDTAVYYCAALFLVSKHHHYWGEGTQVTVSS | low polyreactivity

Sequence | polyreactivity (PSR sort gate)
QVQLVESGGGLVQAGGSLRLSCAASGSTFKIYAMGWYRQAPGKERELVASIRGRGGSTYYADSVKGRFTISRDNAKNTVYLQLNSLKPEDTAVYYCNATYGHRYAPGISYDYWGQGSQVTVSS | high polyreactivity
QVQLVESGGGLVQAGGSLRLSCAASGRTFTYNAMGWYRQAPGKERELVATINTSGASTSYADSVKGRFTISRDNAKNTVYLQMNCLKPEDTAVYYCNRDRRYYHRFDYWGQGTQVTVSS | low polyreactivity
QVQLVESGGGLVQAGGSLRLSCAASGFTFGYYAMGWYRQAPGKERELVATISYGGGSTYYADSVKGRFTISRDNAKNTVYLQMNSLKPEDSAVYYCAASYLVQAPVSGYVYRMYYWGQGTQVTVSS | high polyreactivity
QVQLVESGGGLVQAGGSLRLSCAASGFIFRYYAMGWYRQAPGKETELVAAINRGGGTNYADSVKGRFTISRDNAKNTVYLQLNSLKPEDTAVYYCAAVIRTVRERYGYWGQGTQVTVSS | high polyreactivity
QVQLVESGGGLVQAGGSLRLSCAASGRINEYYAMGWYRQAPGKERELVAAISSGGSTYYADSVKGRFTISRDNAKNTVYFQMNSLKPEDTAVYYCAAVYSSYGRRYNSWGQGTQVTVSS | high polyreactivity
QVQLVESGGGLVQAGGSLRLSCAASGYTFSHYAMGWYRQAPGKERELVAGITWSGGSTYYADSVKGRFTISRDNAKNTVYLQMNSLKPEDTSVYYCAAKYYWYYSYSGIPLFDYWGHGTQVTVSS | low polyreactivity
QVQLVESGGGLVQAGGSLRLSCAASGSTFDANAMGWYRQAPGKERELVAAISYSDGTTYYADSVKGRFTISRDNAKNTVYLQMNSLKPEDTAVYYCAAELFTYDGEEDYWGQGTQVTVSS | high polyreactivity
QVQLVESGGGLVQAGGSLRLSCAASGSSFGRYVMGSYRPAPGKERELVAAIRSRGGSTYYADSVKGRFTISRDIAKNTVYLQMNSLKPEYTAVYYCNDVDRKPYRTYDYWGQGTQVTVSS | high polyreactivity
QVHLVESGGGLVQAGGSLRLSCAASGRIFRTYAMGWYRPAPGKERELVAAISGSGGRTYYADSVKGRFTISRDNAKNTVYLQMNSLIPEDTAVSYCAKYVSIVRYGSTTNYDYWGQGTQVTVSS | high polyreactivity
QVQLVESGGGLVQAGGSLRLSCAASGFIFRNYAMGWYRQAPGKERELVAAIDSSGGSTYYADSVKGRFTISRDNAKNTVYLQMNSLKPEDTAVYYCAAESYYYQYEYWGQGTQVTVSS | high polyreactivity
QVQLVESGGGLVQAGVSLRLSCAASGFIFRTYAMGWYRQAPGKEREVVAAITGRGGTTYYADSVKGRFTISRDNAKNTVYLQMNSLKPEDTAVYYCAARGRVSVNTQRYAAYNYLGQGTQVTVSS | high polyreactivity
QVQLVESGGGLVQAGGSLRLSCAASGSTILQNAMGWYRQAPGKERELVAAISRSGGSTYYADSVKGRFTISRDNAKNTVYLQMNSLKPEDTAVYYCARRYWPGSAYWIYDYWGQGTQVTVSS | high polyreactivity
QVQLVESGGGLVQAGGSLRLSCAASGRIFNMYAMGWYRQAPGKERELVAAISVSGTRTYYADSVKGRFTISRDNAKNTVYLQMNSLKPEDTAVYYCAADSYGGVWSEHMYYWGQGTQVTVSS | low polyreactivity
QVQLVESGGALGQAGGRLRLTCAASGSTFSIYGMGWYRQAHGKEREFVAALRTSGGRTYADSVKGRFTISRDNAKNTVYLQLNSLKPDDPAVDYCAAHVNYIYDWGQGTQVTVSS | high polyreactivity
QVQHVESGGGLVQAGGSLRLSCAASGIIFDGNVMGWDRQAPGKEREFVASISISGGSTSYADSVKGRFTISRDNAKNTVYLQMNSLKPEDTAVYYCNTDVGYGRVCRWRYHGDYWGQGTQVTVSS | low polyreactivity
QVQLVESGGGLVQAGGSLRLSCAASRSIFSQYSRGCYRQAPGKERELVATITWRGGSNTNYADSVKGRFTISRDNAKNTVYLQMNSLKPEDTAVYYCNAAFPYHYRFDYWGQGTQVTVSS | low polyreactivity
QVQLVESGGGLVQAGGSLRLSCAASGRTFRAYAMGWNRQPPGKVRELVAVISLSGGSTYYADSVKGRFTISRDNAKNTVYLQMNSLKPEDTAVYYCAAVDWSYTGWRYDYWGQGTQVTVSS | low polyreactivity
QVQLVESGGGLVQAGGSIRLICAASGRTFSRYAMGWYRQAPGKERELVAAITFRFGRTYYADSVKGRFTISRDNAKNTVYLQMNSMKPEDTSVYYCAAETKYSGAYPYDYWGQGTQVPVSS | high polyreactivity
QVQLVESGGCLVQAGGSLRLSCAASGFIFSYYTMGWYRQAPGKERALVAAISYSGGSTYYADSVKGRFTISRDNAKKTVYLQMNSLKPEDTAVYYCAAETYGYYVIRYDYWGQGTQVTVSS | high polyreactivity
QVQLVESGGGLFQAGGSLRLSCAASGRIFGSYAMGWYRQAPGKERELVAAIFSAGSTYYADSVKGRFTISRDNAKNTVYLQMNSLKPEDTAVYYCAAGAYWPWGEDYWGQATQVTVSS | high polyreactivity
QVQLVESGGGLVQAGGSLRLSCAASGSIFEGYAMGWYRQAPGKERELVAAISRSGGSTYYADSVKGRFTISRDNAKNTVYLQMNSLKPEDTAVYYCAARKAIDYQGRHDHWGQGTQVTVSS | low polyreactivity
